Source: publication PMC11357225
Several values for one entry are separate records, joined by “and”; a condition that tells them apart may be missing. Equal values may be shown once.

Tests used:
[1] = molecular target: human lactoferrin (human)
[2] = molecular target: human lactoferrin (human); assay: SPR
[3] = molecular target: human lactoferrin (human); assay: native gel or EMSA

| Substance | percent of input bound [1] | Kd [2] | stoichiometry N [3] | koff [2] | kon [2] |
| --- | --- | --- | --- | --- | --- |
| SARS-CoV-2 spike protein (S-protein), ancestral Wuhan-like variant (from UniProt P0DTC2 14-1213) (natural protein) | 60% | 0.00432 µM |  |  |  |
| receptor-binding domain of the SARS-CoV-2 S-protein, ancestral Wuhan-like variant (from UniProt P0DTC2) (domain or fragment) | 30% | 1.26 µM and 1.31 µM | 1 | 0.308 s⁻¹ | 245000 M⁻¹ s⁻¹ |
